Assay results reported in US20220281998A1 (AZUSAPHARMA SCIENCES, published 2022).

Assays:
[1] = biological target: human EGFR on human cancer cell lines (HCT116, A-431, NCI-H1975, HT-29, RKO) (human, UniProt P00533 25-1210); assay: cell-based or functional assay
[2] = biological target: T1, recombinant biotinylated HER2 (manufactured by ACROBiosystems) (human, UniProt P04626 23-652, biotinylated (site not stated)); assay: sandwich ELISA: immobilised human CD3E/CD3D heterodimer, BsAb, detection with biotinylated HER2
T1 construct: also called human HER2

[3] = biological target: T2, human CD3E/CD3D heterodimer recombinant protein (manufactured by ACROBiosystems) (human, UniProt P07766 23-126; P04234 22-105); assay: ELISA, immobilised human CD3E/CD3D heterodimer, 10-1000 ng/mL BsAb, absorbance rose with concentration
T2 construct: Bought reagent, immobilised on ELISA plates
T2 sequence (P07766 23-126 limits assumed, chain 1 of 2): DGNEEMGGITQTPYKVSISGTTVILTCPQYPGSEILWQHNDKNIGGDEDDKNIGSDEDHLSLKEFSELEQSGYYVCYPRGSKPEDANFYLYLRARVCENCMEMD
T2 sequence (P04234 22-105 limits assumed, chain 2 of 2): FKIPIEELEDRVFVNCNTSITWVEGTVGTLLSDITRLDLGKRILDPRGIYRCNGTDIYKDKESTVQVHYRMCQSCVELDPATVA

B1: LH31 diabody-type BsAb (EGFR×CD3 diabody-type BsAb derived from DUM-31H strain) (bispecific antibody)
chain 1: ATLTPDIQMTQSPSSLSASVGDRVTITCRASQDIRNYLNWYQQKPGKAPKLLIYYTSRLESGVPSRFSGSGSGTDYTLTISSLQPEDFATYYCQQGNTLPWTFGQGTKVEIKAAGGGGSEVQLVESGGGLVQPGGSLRLSCAASGFTLSGDWIHWVRQAPGKGLEWLGEISAAGGYTDYADSVKGRFTISADTSKNTAYLQMNSLRAEDTAVYYCARESRVSFEAAMDYWGQGTLVTVSSAAAAEQKLISEEDLNLGGGMRGSHHHHHH
chain 2: ATLTPDIQMTQSPSSLSASVGDRVTITCRASQDLATDVAWYQQKPGKAPKLLIYSASFLYSGVPSRFSGSGSGTDFTLTISSLQPEDFATYYCQQSEPEPYTFGQGTKVEIKAAGGGGSEVQLVESGGGLVQPGGSLRLSCAASGYSFTGYTMNWVRQAPGKGLEWVALINPYKGVSTYNQKFKDRFTISVDKSKNTAYLQMNSLRAEDTAVYYCARSGYYGDSDWYFDVWGQGTLVTVSSAAAEQKLISEEDLNLGGGMRGSHHHHHH
notes: Heterodimer of polypeptides 1 and 2, secreted by Bifidobacterium longum 105-A carrying pLH31-L5, purified through the His tag; also called LH31 polypeptide 1 + LH31 polypeptide 2 with SP50-L5
For B1, the “EC50: concentration that reduced the viability of HCT116 cells to 50% (T-LAK:HCT116 5:1, 24 h)” value [1] was 0.032 nM, the binding result [2] was “no binding” and the binding result [3] was “binds”.
